Results on one substance are retold here after patent publication US20200353049A1.

In assay [1] the target is IL-22R1a extracellular domain (ECD) (UniProt Q8N6P7). Briefly: binding ELISA on plate-coated IL-22R1a ECD, relative to Reference Standard (100%); stored 5 C, 3 months. In general terms: In an ELISA, binding on a coated surface is turned into a signal by an enzyme label.
Assay [2] has the same target. Briefly: potency assay (binding ELISA on plate-coated IL-22R1a ECD), relative to reference standard (100%); stored 5 C, 18 months.
The target is the same in assay [3]. As to the kind of experiment: binding ELISA on plate-coated IL-22R1a ECD, relative to Reference Standard (100%); stored -20 C, 6 months.
Assay [4] shares this target. Briefly: potency assay (binding ELISA on plate-coated IL-22R1a ECD), relative to reference standard (100%); stored 25 C, 3 months.
Assay [5] has the same target. As to the kind of experiment: potency assay (binding ELISA on plate-coated IL-22R1a ECD), relative to reference standard (100%); stored 5 C, 6 months.
The target is the same in assay [6]. As to the kind of experiment: potency assay (binding ELISA on plate-coated IL-22R1a ECD); change after 6 months at 25 C (supportive stability study).

Chain of UniProt Q8N6P7 (Q8N6P7 16-228 limits assumed): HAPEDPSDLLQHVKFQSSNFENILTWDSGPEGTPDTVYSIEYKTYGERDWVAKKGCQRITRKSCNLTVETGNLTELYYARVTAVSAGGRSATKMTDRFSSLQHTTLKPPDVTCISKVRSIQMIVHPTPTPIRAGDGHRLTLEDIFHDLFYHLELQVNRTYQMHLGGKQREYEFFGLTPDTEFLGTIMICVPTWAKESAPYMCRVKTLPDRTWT

As to IL-22 Fc fusion protein, the Potency by Binding Assay (% relative potency) (% relative potency) in assay [1] stood at 73; in assay [3] it was 112. Also, the Potency (% relative potency) (% relative potency) was 93 in assay [2], 95 in assay [4] and 100 in assay [5]. This substance showed a loss of % relative potency (% relative potency) in assay [6] of 29.
